Reference: the supplement of paper PMC10065799, “High-throughput profiling of sequence recognition by tyrosine kinases and SH2 domains using bacterial peptide display” (eLife, 2023)

Each sequence was assayed against Jak2 (UniProt O60674) (assay: phosphorylation enrichment, bacterial display (enrichment ratio); higher = better substrate or ligand; peptides without Tyr show the background).
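Further: 11-residue human phosphosite peptides and single-mutation variants displayed on the E. coli surface, counted by deep sequencing, each peptide's frequency after selection divided by its frequency in the unselected input library; frequency after pTyr selection over input frequency; kinase dosed for 20-30% of maximal phosphorylation in three min.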

Jak2, sequence (O60674 whole entry, looked up): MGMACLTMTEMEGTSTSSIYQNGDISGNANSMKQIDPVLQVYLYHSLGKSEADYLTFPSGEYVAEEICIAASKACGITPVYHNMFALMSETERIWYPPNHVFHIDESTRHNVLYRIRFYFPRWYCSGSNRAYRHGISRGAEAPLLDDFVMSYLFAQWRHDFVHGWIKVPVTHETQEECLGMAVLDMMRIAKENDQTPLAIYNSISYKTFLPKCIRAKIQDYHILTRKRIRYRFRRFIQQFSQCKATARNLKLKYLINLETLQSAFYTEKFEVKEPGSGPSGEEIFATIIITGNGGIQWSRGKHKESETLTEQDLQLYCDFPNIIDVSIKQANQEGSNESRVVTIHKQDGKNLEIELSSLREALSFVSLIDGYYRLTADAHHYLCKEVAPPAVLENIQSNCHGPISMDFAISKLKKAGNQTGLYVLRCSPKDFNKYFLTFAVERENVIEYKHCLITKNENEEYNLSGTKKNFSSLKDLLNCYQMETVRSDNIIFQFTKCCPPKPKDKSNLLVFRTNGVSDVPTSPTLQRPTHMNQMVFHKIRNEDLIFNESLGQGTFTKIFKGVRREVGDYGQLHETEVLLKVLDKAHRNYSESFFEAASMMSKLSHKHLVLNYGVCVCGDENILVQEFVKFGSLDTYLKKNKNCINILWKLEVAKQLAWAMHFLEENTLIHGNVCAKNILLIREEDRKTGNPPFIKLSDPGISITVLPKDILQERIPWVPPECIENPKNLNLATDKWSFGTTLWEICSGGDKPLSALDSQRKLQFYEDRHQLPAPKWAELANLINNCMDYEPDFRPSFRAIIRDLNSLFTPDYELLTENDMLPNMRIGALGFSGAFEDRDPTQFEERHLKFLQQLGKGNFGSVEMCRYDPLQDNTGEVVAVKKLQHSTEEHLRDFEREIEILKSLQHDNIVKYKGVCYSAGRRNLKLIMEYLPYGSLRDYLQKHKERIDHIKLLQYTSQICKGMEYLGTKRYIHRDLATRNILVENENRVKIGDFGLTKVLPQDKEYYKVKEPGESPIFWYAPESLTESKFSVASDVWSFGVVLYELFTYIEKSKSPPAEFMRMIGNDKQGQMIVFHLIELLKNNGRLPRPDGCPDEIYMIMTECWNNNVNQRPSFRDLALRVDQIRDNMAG

Sequence	phosphorylation enrichment
PSDPSYEDMRE [BMPR1A_Y467]	1.45
FSLIHYASIVD [MYH7_Y582_G584S]	1.13
CNRADYSKLAS [GNE_Y22_P27S]	0.621
PIFEGYGLPHA [ACTA1_Y171_A172G_YF]	0.836
FKDFFYCWNTF [AICDA_Y146_YF]	1.73
PLGPLYASSNT [INSR_Y992_P997T]	0.723
TEAGNYKLCFD [TMED1_Y103_D102N]	1.17
KKHIPYREHKS [CSNK1G1_Y205]	3.87
RSSNTYTLTDV [ALCAM_Y298]	0.805
EEVKAYLDFRE [CHAC2_Y78]	1.35
DTVRIYDDDFF [UBA1_Y560_E557V]	1.27
IGEGTYRQVFK [CDK13_Y716_G717R_YF]	0.715
SYCYRYRCAAR [SUMF1_Y344]	0.728
MASTSYDFCRV [BST2_Y6_YF]	0.796
QMIETYFDFRV [NSMF_Y506_L511V]	2.78
RQQEDYLLYKQ [RARRES1_Y159]	2.46
AGLEDYDRLRP [RAC3_Y64_Q61L]	0.931
AELVRYYMEHH [PTPN11_Y80_Q79R]	0.865
TCRPPYFHRNC [HGD_Y333_F329C_YF]	0.914
SVTCTYSPARN [TP53_Y126_L130R]	1.06
FQEKGYNKEPR [CHRND_Y38_L42P]	0.691
EDGCIYPATIA [SMN1_Y109]	1.1
WSISFYPQVIM [CTNS_Y143]	1.19
WQQQSYLYSGI [CTNNB1_Y30_D32Y]	1.52
HESEIYCKVCY [CSRP3_Y57]	1.14
LKTNWYNNGKD [DNMT3B_Y404_C403W]	1.18
KPVDTYFDSTR [DYNC2H1_Y2230_M2227V_YF]	0.723
VFLGAYDHFLP [SLC22A5_Y486_R488H_YF]	0.726
RLPSGYGLAYR [DLK1_Y262]	0.46

These sequences were tested against MERTK (UniProt Q12866) in the same assay as above.
MERTK, sequence (Q12866 whole entry, looked up): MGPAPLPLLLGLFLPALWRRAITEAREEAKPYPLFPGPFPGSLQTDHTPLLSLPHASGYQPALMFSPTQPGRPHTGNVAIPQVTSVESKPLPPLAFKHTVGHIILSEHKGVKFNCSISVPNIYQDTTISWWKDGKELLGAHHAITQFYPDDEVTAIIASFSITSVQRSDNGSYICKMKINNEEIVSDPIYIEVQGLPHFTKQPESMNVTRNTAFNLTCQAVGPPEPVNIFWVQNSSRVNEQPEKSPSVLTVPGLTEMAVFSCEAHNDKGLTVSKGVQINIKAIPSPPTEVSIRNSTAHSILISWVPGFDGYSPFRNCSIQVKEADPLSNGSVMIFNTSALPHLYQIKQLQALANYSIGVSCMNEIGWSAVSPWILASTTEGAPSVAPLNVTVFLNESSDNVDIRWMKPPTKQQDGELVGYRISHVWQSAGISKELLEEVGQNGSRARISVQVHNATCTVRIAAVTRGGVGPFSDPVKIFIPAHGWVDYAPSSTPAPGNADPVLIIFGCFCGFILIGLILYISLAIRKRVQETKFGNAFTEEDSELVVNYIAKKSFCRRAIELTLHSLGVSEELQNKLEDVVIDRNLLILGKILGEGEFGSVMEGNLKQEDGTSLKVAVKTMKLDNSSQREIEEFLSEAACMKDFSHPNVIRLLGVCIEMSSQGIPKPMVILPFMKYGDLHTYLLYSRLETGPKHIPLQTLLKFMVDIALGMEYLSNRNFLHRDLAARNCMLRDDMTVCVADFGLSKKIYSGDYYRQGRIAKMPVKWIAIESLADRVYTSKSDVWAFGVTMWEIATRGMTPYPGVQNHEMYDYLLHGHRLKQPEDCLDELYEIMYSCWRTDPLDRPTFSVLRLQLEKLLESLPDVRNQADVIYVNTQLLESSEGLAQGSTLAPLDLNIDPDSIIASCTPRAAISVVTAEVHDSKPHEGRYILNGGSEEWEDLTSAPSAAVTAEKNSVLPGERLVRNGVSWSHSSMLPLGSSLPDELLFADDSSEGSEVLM

Sequence	phosphorylation enrichment
PSDPSYEDMRE [BMPR1A_Y467]	0.504
FSLIHYASIVD [MYH7_Y582_G584S]	0.475
CNRADYSKLAS [GNE_Y22_P27S]	0.441
PIFEGYGLPHA [ACTA1_Y171_A172G_YF]	0.641
FKDFFYCWNTF [AICDA_Y146_YF]	2.55
PLGPLYASSNT [INSR_Y992_P997T]	1.12
TEAGNYKLCFD [TMED1_Y103_D102N]	0.453
KKHIPYREHKS [CSNK1G1_Y205]	1.03
RSSNTYTLTDV [ALCAM_Y298]	0.766
EEVKAYLDFRE [CHAC2_Y78]	0.524
DTVRIYDDDFF [UBA1_Y560_E557V]	0.592
IGEGTYRQVFK [CDK13_Y716_G717R_YF]	0.348
SYCYRYRCAAR [SUMF1_Y344]	0.549
MASTSYDFCRV [BST2_Y6_YF]	0.709
QMIETYFDFRV [NSMF_Y506_L511V]	1.09
RQQEDYLLYKQ [RARRES1_Y159]	0.631
AGLEDYDRLRP [RAC3_Y64_Q61L]	0.402
AELVRYYMEHH [PTPN11_Y80_Q79R]	0.639
TCRPPYFHRNC [HGD_Y333_F329C_YF]	0.758
SVTCTYSPARN [TP53_Y126_L130R]	0.449
FQEKGYNKEPR [CHRND_Y38_L42P]	0.644
EDGCIYPATIA [SMN1_Y109]	0.545
WSISFYPQVIM [CTNS_Y143]	0.301
WQQQSYLYSGI [CTNNB1_Y30_D32Y]	7.49
HESEIYCKVCY [CSRP3_Y57]	2.65
LKTNWYNNGKD [DNMT3B_Y404_C403W]	0.736
KPVDTYFDSTR [DYNC2H1_Y2230_M2227V_YF]	0.54
VFLGAYDHFLP [SLC22A5_Y486_R488H_YF]	6.29
RLPSGYGLAYR [DLK1_Y262]	0.385

What follows are sequences tested against EPHB2 (UniProt P29323) in the same assay as above.
EPHB2, sequence (P29323 whole entry, looked up): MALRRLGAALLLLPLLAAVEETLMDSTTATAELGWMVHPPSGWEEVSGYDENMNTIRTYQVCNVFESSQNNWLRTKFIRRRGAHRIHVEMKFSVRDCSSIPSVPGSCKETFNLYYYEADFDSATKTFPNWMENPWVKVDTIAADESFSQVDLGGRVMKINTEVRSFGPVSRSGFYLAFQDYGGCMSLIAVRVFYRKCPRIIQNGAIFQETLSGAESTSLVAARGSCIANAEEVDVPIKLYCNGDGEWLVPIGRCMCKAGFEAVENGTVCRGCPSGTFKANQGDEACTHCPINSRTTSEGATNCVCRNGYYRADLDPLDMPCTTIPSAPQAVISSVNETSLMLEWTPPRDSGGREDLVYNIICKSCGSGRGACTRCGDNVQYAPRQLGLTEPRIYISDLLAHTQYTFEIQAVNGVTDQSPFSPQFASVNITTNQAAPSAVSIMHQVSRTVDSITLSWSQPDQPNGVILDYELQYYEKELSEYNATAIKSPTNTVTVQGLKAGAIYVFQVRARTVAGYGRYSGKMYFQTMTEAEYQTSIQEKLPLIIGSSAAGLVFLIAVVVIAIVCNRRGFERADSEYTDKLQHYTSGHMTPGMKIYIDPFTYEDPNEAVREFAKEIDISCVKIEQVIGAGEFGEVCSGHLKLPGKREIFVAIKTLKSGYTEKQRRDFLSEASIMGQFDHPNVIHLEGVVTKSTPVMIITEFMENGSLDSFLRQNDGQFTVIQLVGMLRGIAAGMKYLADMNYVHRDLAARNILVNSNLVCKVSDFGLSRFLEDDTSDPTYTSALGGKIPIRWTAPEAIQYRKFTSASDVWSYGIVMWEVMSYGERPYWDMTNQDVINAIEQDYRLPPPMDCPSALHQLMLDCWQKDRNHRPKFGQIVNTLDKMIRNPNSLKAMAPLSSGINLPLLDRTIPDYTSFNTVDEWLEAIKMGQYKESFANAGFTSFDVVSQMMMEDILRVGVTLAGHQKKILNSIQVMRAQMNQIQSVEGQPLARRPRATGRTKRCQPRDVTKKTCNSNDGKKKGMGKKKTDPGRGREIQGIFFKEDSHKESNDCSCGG

Sequence	phosphorylation enrichment
PSDPSYEDMRE [BMPR1A_Y467]	0.495
FSLIHYASIVD [MYH7_Y582_G584S]	0.692
CNRADYSKLAS [GNE_Y22_P27S]	0.572
PIFEGYGLPHA [ACTA1_Y171_A172G_YF]	0.5
FKDFFYCWNTF [AICDA_Y146_YF]	0.804
PLGPLYASSNT [INSR_Y992_P997T]	0.783
TEAGNYKLCFD [TMED1_Y103_D102N]	0.577
KKHIPYREHKS [CSNK1G1_Y205]	1.25
RSSNTYTLTDV [ALCAM_Y298]	0.561
EEVKAYLDFRE [CHAC2_Y78]	0.765
DTVRIYDDDFF [UBA1_Y560_E557V]	0.626
IGEGTYRQVFK [CDK13_Y716_G717R_YF]	0.582
SYCYRYRCAAR [SUMF1_Y344]	0.512
MASTSYDFCRV [BST2_Y6_YF]	0.613
QMIETYFDFRV [NSMF_Y506_L511V]	1.46
RQQEDYLLYKQ [RARRES1_Y159]	0.823
AGLEDYDRLRP [RAC3_Y64_Q61L]	0.791
AELVRYYMEHH [PTPN11_Y80_Q79R]	0.857
TCRPPYFHRNC [HGD_Y333_F329C_YF]	0.686
SVTCTYSPARN [TP53_Y126_L130R]	0.654
FQEKGYNKEPR [CHRND_Y38_L42P]	0.627
EDGCIYPATIA [SMN1_Y109]	0.562
WSISFYPQVIM [CTNS_Y143]	0.552
WQQQSYLYSGI [CTNNB1_Y30_D32Y]	5.03
HESEIYCKVCY [CSRP3_Y57]	0.782
LKTNWYNNGKD [DNMT3B_Y404_C403W]	0.688
KPVDTYFDSTR [DYNC2H1_Y2230_M2227V_YF]	0.556
VFLGAYDHFLP [SLC22A5_Y486_R488H_YF]	3.32
RLPSGYGLAYR [DLK1_Y262]	0.315

What follows are sequences tested against Hck (UniProt P08631) in the same assay as above.
Hck, sequence (P08631 whole entry, looked up): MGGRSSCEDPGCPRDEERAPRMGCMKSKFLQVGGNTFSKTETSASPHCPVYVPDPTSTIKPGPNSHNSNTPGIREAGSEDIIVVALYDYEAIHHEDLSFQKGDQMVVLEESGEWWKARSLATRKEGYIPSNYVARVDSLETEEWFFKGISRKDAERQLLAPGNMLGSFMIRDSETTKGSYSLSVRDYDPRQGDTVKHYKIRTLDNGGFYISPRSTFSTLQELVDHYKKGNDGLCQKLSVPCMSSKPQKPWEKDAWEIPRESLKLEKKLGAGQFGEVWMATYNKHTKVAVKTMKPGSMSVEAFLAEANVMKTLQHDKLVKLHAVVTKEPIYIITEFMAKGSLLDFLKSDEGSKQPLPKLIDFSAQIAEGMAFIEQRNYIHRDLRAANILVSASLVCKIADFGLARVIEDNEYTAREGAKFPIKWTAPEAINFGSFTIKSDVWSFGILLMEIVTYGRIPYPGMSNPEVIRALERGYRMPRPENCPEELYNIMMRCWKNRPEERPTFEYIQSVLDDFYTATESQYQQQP

Sequence	phosphorylation enrichment
PSDPSYEDMRE [BMPR1A_Y467]	1.28
FSLIHYASIVD [MYH7_Y582_G584S]	0.575
CNRADYSKLAS [GNE_Y22_P27S]	0.376
PIFEGYGLPHA [ACTA1_Y171_A172G_YF]	0.642
FKDFFYCWNTF [AICDA_Y146_YF]	0.624
PLGPLYASSNT [INSR_Y992_P997T]	3.67
TEAGNYKLCFD [TMED1_Y103_D102N]	0.549
KKHIPYREHKS [CSNK1G1_Y205]	1.19
RSSNTYTLTDV [ALCAM_Y298]	0.951
EEVKAYLDFRE [CHAC2_Y78]	0.601
DTVRIYDDDFF [UBA1_Y560_E557V]	0.538
IGEGTYRQVFK [CDK13_Y716_G717R_YF]	0.634
SYCYRYRCAAR [SUMF1_Y344]	0.386
MASTSYDFCRV [BST2_Y6_YF]	0.473
QMIETYFDFRV [NSMF_Y506_L511V]	2.77
RQQEDYLLYKQ [RARRES1_Y159]	0.969
AGLEDYDRLRP [RAC3_Y64_Q61L]	0.894
AELVRYYMEHH [PTPN11_Y80_Q79R]	0.683
TCRPPYFHRNC [HGD_Y333_F329C_YF]	0.548
SVTCTYSPARN [TP53_Y126_L130R]	0.56
FQEKGYNKEPR [CHRND_Y38_L42P]	0.655
EDGCIYPATIA [SMN1_Y109]	0.577
WSISFYPQVIM [CTNS_Y143]	0.399
WQQQSYLYSGI [CTNNB1_Y30_D32Y]	7.73
HESEIYCKVCY [CSRP3_Y57]	7.96
LKTNWYNNGKD [DNMT3B_Y404_C403W]	1.01
KPVDTYFDSTR [DYNC2H1_Y2230_M2227V_YF]	0.565
VFLGAYDHFLP [SLC22A5_Y486_R488H_YF]	2.73
RLPSGYGLAYR [DLK1_Y262]	0.555
